The target in this experiment is T1, nuclear distribution protein nude-like 1 (M17 neuroblastoma cells) (human (endogenous in SK-N-BE(2)-M17), UniProt Q9GZM8 1-345).
T1 construct: nuclear distribution protein nudE-like 1, endogenous in SK-N-BE(2)-M17 cells; also called NDEL1; source: endogenous, SK-N-BE(2)-M17 neuroblastoma cells (fixed cells)
T1 sequence (looked up): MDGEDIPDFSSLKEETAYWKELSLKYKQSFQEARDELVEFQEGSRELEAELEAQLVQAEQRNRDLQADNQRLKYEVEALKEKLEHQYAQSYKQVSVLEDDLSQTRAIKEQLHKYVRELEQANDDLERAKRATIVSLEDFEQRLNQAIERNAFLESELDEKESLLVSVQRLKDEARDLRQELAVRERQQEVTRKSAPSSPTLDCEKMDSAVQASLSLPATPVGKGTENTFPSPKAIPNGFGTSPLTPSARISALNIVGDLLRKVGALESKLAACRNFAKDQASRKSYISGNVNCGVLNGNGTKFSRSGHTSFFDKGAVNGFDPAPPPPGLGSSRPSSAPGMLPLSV
Nature of the experiment: proximity ligation; fixed M17 cells stably expressing V5-tagged 14-3-3θ S232A or S232D; anti-V5 with anti-NDEL1 or anti-BCR antibody; DuoLink probes; objects per area, normalised. The following applies: partners not purified.

B1: V5-tagged 14-3-3θ S232A (natural protein, UniProt P27348 1-245, looked up)
chain: MEKTELIQKAKLAEQAERYDDMATCMKAVTEQGAELSNEERNLLSVAYKNVVGGRRSAWRVISSIEQKTDTSDKKLQLIKDYREKVESELRSICTTVLELLDKYLIANATNPESKVFYLKMKGDYFRYLAEVACGDDRKQTIDNSQGAYQEAFDISKKEMQPTHPIRLGLALNFSVFYYEILNNPELACTLAKTAFDEAIAELDTLNEDSYKDSTLIMQLLRDNLTLWTSDAAGEECDAAEGAEN
notes: 14-3-3 protein theta with S232A; also called V5-14-3-3θ phospho-mutant S232A; source: SK-N-BE(2)-M17 cells, stably transfected (fixed cells)
On to B1, for which the “fold PLA signal against S232D” value is approximately 2 fold.

(Values after paper PMC12714136, “14-3-3θ phosphorylation at S232 reduces its interactome and regulates axonal trafficking” (Disease Models & Mechanisms, 2025).)
